Experimental data from PMC2643475.

How the values were obtained:
[1] = target: α5β1-integrin (human (endogenous in T-HEp3)) (UniProt P05556)
[2] = target: α5β1-integrin (human (endogenous in T-HEp3)) (UniProt P05556); remark: listed apart in the source
[3] = target: α5β1-integrin (human (endogenous in T-HEp3)) (UniProt P05556); remark: listed apart in the source
[4] = target: α5β1-integrin (human (endogenous in T-HEp3)) (UniProt P05556); assay: co-IP; as a1, with 2.5 µM compound MS#479 added for the last 15 min of the IP

Sequence of UniProt P05556 (P05556 whole entry, looked up): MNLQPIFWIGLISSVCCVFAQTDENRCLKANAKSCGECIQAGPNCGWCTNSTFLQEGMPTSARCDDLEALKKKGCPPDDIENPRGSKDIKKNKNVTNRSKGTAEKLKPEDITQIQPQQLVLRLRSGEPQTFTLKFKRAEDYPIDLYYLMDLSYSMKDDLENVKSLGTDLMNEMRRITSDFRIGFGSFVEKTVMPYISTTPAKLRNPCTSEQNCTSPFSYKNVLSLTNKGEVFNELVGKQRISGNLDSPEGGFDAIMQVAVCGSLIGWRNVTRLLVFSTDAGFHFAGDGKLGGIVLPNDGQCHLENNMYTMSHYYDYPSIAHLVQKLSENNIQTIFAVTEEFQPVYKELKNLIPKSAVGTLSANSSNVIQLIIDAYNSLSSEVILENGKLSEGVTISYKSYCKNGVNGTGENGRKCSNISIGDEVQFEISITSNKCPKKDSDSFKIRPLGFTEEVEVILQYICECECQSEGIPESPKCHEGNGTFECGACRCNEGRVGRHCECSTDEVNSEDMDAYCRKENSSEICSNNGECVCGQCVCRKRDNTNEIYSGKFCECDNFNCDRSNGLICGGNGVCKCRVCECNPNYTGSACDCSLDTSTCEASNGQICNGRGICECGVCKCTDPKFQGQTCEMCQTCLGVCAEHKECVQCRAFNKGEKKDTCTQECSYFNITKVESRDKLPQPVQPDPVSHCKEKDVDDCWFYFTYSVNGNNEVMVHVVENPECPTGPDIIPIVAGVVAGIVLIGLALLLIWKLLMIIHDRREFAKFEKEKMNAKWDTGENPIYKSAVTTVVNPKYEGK

“urokinase receptor (uPAR) (from UniProt Q03405 23-305)” gave an Elk1-GAL4 luciferase reporter of ERK activity in T-HEp3 cells treated for 16 hrs with 5 µM MS#479; inhibition against untreated control [1] greater than 60%, a binding of HUTS-4 antibody (active conformation of β1 integrin) to T-HEp3 cells by FACS with 5 and 50 µM MS#479 or MS#305 [2] of 15% and a luciferase activity (ERK reporter, units per mg of tumor protein) in T-HEp3 tumors on chick embryo CAMs treated daily with 10 µM MS#479; inhibition against diluent [3] of 85%. The percent reduction of the uPAR/integrin association with 2.5 µM MS#479 [4] was greater than 70%.
